Laboratory results reported in patent US20220403424A1 (UNIVERSITY OF PUERTO RICO, published 2022).

B1: FabZ-Linker-FabZ fused homodimer (enzyme)
chain: MTTNTHTLQIEEILELLPHRFPFLLVDRVLDFEEGRFLRAVKNVSVNEPFFQGHFPGKPIFPGVLILEAMAQATGILAFKSVGKLEPGELYYFAGIDEARFKRPVVPGDQMIMEVTFEKTRRGLTRFKGVALVDGKVVCEATMMCARSREASTQNVAIQTAAPVASASNGLDAAQVQGTMTTNTHTLQIEEILELLPHRFPFLLVDRVLDFEEGRFLRAVKNVSVNEPFFQGHFPGKPIFPGVLILEAMAQATGILAFKSVGKLEPGELYYFAGIDEARFKRPVVPGDQMIMEVTFEKTRRGLTRFKGVALVDGKVVCEATMMCARSREA
notes: Single-chain fusion; By SEC it elutes as a trimer of fused dimers, so three copies of this chain, at about 116 kDa; also called FabZ-FabZ; FabZFabZ; not shown: His tag from vector pET-200/TOPO
B2: FabA-Linker-FabZ fused heterodimer (enzyme)
chain: MVDKRESYTKEDLLASGRGELFGAKGPQLPAPNMLMMDRVVKMTETGGNFDKGYVEAELDINPDLWFFGCHFIGDPVMPGCLGLDAMWQLVGFYLGWLGGEGKGRALGVGEVKFTGQVLPTAKKVTYRIHFKRIVNRRLIMGLADGEVLVDGRLIYTASDLKVGLFQDTSAFSTQNVAIQTAAPVASASNGLDAAQVQGTMTTNTHTLQIEEILELLPHRFPFLLVDRVLDFEEGRFLRAVKNVSVNEPFFQGHFPGKPIFPGVLILEAMAQATGILAFKSVGKLEPGELYYFAGIDEARFKRPVVPGDQMIMEVTFEKTRRGLTRFKGVALVDGKVVCEATMMCARSREA
notes: Single-chain fusion, His-tagged, purified from E. coli; By SEC and SAXS the chain self-associates into a higher oligomer of about 400 kDa; The number of copies is not settled: 'possibly decamers', and nonamers in computational models; also called FabA-FabZ; FabA-peptide linker-FabZ; not shown: His tag from vector pET-200/TOPO

Target: the molecule itself
Test: size exclusion chromatography, self-association

Protein | binding result
B1 | binds
B2 | binds
